The supplement of paper PMC9112550, “Optimization of the antimicrobial peptide Bac7 by deep mutational scanning” (BMC Biology, 2022)

Tested on: Escherichia coli TOP10
Assay: shrunken log2 fold change of peptide-encoding DNA abundance (4.5 h post-induction vs induction); higher = less antimicrobial activity (less host growth inhibition)
Conditions: time post-induction: 4.5 h; library: site-saturation at positions 5, 18, 19, 20
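Note: peptides expressed intracellularly from a pBAD plasmid library in pooled LB shake-flask culture, induced with 0.3% L-arabinose, DNA abundance read by NGS, three biological replicates, DESeq2 with apeglm shrinkage.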

| Sequence | shrunken log2 fold change |
| --- | --- |
| RRIRMRPPRLPRPRPRPSIVPRP | -0.106 |
| RRIRMRPPRLPRPRPRPSKLPRP | -0.0679 |
| RRIRMRPPRLPRPRPRPSKMPRP | -0.0315 |
| RRIRMRPPRLPRPRPRPSLPPRP | -0.0418 |
| RRIRMRPPRLPRPRPRPSNTPRP | -0.0896 |
| RRIRMRPPRLPRPRPRPSQKPRP | 0.246 |
| RRIRMRPPRLPRPRPRPSQMPRP | 0.344 |
| RRIRMRPPRLPRPRPRPSQPPRP | 0.22 |
| RRIRMRPPRLPRPRPRPSRLPRP | 0.19 |
| RRIRMRPPRLPRPRPRPSRPPRP | 0.764 |
| RRIRMRPPRLPRPRPRPSRRPRP | 0.189 |
| RRIRMRPPRLPRPRPRPSSRPRP | 0.208 |
| RRIRMRPPRLPRPRPRPSTHPRP | 0.021 |
| RRIRMRPPRLPRPRPRPSVCPRP | 0.386 |
| RRIRMRPPRLPRPRPRPSVKPRP | 0.185 |
| RRIRMRPPRLPRPRPRPSVWPRP | 0.275 |
| RRIRMRPPRLPRPRPRPSYHPRP | -0.402 |
| RRIRMRPPRLPRPRPRPTAHPRP | 0.767 |
| RRIRMRPPRLPRPRPRPTAPPRP | 0.905 |
| RRIRMRPPRLPRPRPRPTCFPRP | 0.105 |
| RRIRMRPPRLPRPRPRPTCKPRP | 2.25 |
| RRIRMRPPRLPRPRPRPTGEPRP | 0.0299 |
| RRIRMRPPRLPRPRPRPTIDPRP | 0.0912 |
| RRIRMRPPRLPRPRPRPTITPRP | 0.114 |
| RRIRMRPPRLPRPRPRPTIVPRP | -0.0671 |

| Sequence | shrunken log2 fold change |
| --- | --- |
| RRIRMRPPRLPRPRPRPTKDPRP | 0.277 |
| RRIRMRPPRLPRPRPRPTLEPRP | 0.259 |
| RRIRMRPPRLPRPRPRPTLFPRP | 0.428 |
| RRIRMRPPRLPRPRPRPTLMPRP | 0.0126 |
| RRIRMRPPRLPRPRPRPTMGPRP | 0.253 |
| RRIRMRPPRLPRPRPRPTPLPRP | 1.01 |
| RRIRMRPPRLPRPRPRPTQCPRP | 0.00706 |
| RRIRMRPPRLPRPRPRPTQEPRP | 0.433 |
| RRIRMRPPRLPRPRPRPTQIPRP | 0.386 |
| RRIRMRPPRLPRPRPRPTRVPRP | 0.25 |
| RRIRMRPPRLPRPRPRPTSKPRP | 0.0886 |
| RRIRMRPPRLPRPRPRPTTWPRP | 0.745 |
| RRIRMRPPRLPRPRPRPTVEPRP | 3.68 |
| RRIRMRPPRLPRPRPRPTVIPRP | -0.271 |
| RRIRMRPPRLPRPRPRPVAEPRP | 2.88 |
| RRIRMRPPRLPRPRPRPVAGPRP | 1.31 |
| RRIRMRPPRLPRPRPRPVAMPRP | 0.57 |
| RRIRMRPPRLPRPRPRPVAPPRP | 0.945 |
| RRIRMRPPRLPRPRPRPVCCPRP | 0.496 |
| RRIRMRPPRLPRPRPRPVDSPRP | 0.216 |
| RRIRMRPPRLPRPRPRPVEIPRP | 0.00438 |
| RRIRMRPPRLPRPRPRPVENPRP | -0.0952 |
| RRIRMRPPRLPRPRPRPVFMPRP | -0.202 |
| RRIRMRPPRLPRPRPRPVFYPRP | -0.0165 |
| RRIRMRPPRLPRPRPRPVHWPRP | 0.155 |

| Sequence | shrunken log2 fold change |
| --- | --- |
| RRIRMRPPRLPRPRPRPVIEPRP | -0.0535 |
| RRIRMRPPRLPRPRPRPVIQPRP | 0.257 |
| RRIRMRPPRLPRPRPRPVKCPRP | -0.0525 |
| RRIRMRPPRLPRPRPRPVKMPRP | -0.124 |
| RRIRMRPPRLPRPRPRPVLHPRP | -0.309 |
| RRIRMRPPRLPRPRPRPVLLPRP | 0.291 |
| RRIRMRPPRLPRPRPRPVLWPRP | 0.847 |
| RRIRMRPPRLPRPRPRPVPFPRP | 0.179 |
| RRIRMRPPRLPRPRPRPVQKPRP | 0.069 |
| RRIRMRPPRLPRPRPRPVQQPRP | 0.113 |
| RRIRMRPPRLPRPRPRPVREPRP | 1.19 |
| RRIRMRPPRLPRPRPRPVRPPRP | 1.76 |
| RRIRMRPPRLPRPRPRPVSAPRP | 0.617 |
| RRIRMRPPRLPRPRPRPVSKPRP | 0.0965 |
| RRIRMRPPRLPRPRPRPVTFPRP | -0.0159 |
| RRIRMRPPRLPRPRPRPVWSPRP | 0.709 |
| RRIRMRPPRLPRPRPRPVYHPRP | -0.435 |
| RRIRMRPPRLPRPRPRPVYRPRP | -0.174 |
| RRIRMRPPRLPRPRPRPWAEPRP | 0.628 |
| RRIRMRPPRLPRPRPRPWAKPRP | 0.0317 |
| RRIRMRPPRLPRPRPRPWDNPRP | 0.013 |
| RRIRMRPPRLPRPRPRPWDVPRP | 0.0498 |
| RRIRMRPPRLPRPRPRPWHVPRP | -0.0444 |
| RRIRMRPPRLPRPRPRPWKGPRP | -0.00192 |
| RRIRMRPPRLPRPRPRPWLEPRP | -0.00871 |

| Sequence | shrunken log2 fold change |
| --- | --- |
| RRIRMRPPRLPRPRPRPWLGPRP | 0.221 |
| RRIRMRPPRLPRPRPRPWPAPRP | 0.807 |
| RRIRMRPPRLPRPRPRPWSEPRP | 0.0897 |
| RRIRMRPPRLPRPRPRPWTLPRP | -0.0343 |
| RRIRMRPPRLPRPRPRPWTNPRP | -0.01 |
| RRIRMRPPRLPRPRPRPWTRPRP | -0.00172 |
| RRIRMRPPRLPRPRPRPWVAPRP | 0.109 |
| RRIRMRPPRLPRPRPRPWVWPRP | 0.169 |
| RRIRMRPPRLPRPRPRPYCDPRP | -0.556 |
| RRIRMRPPRLPRPRPRPYCPPRP | -0.066 |
| RRIRMRPPRLPRPRPRPYDGPRP | -0.0589 |
| RRIRMRPPRLPRPRPRPYFCPRP | -0.352 |
| RRIRMRPPRLPRPRPRPYFFPRP | -0.175 |
| RRIRMRPPRLPRPRPRPYGIPRP | -0.0497 |
| RRIRMRPPRLPRPRPRPYHFPRP | -0.16 |
| RRIRMRPPRLPRPRPRPYHSPRP | -0.0421 |
| RRIRMRPPRLPRPRPRPYIQPRP | -1.05 |
| RRIRMRPPRLPRPRPRPYKHPRP | -0.872 |
| RRIRMRPPRLPRPRPRPYKTPRP | 0.0261 |
| RRIRMRPPRLPRPRPRPYNHPRP | -0.491 |
| RRIRMRPPRLPRPRPRPYNPPRP | -0.21 |
| RRIRMRPPRLPRPRPRPYRMPRP | -0.219 |
| RRIRMRPPRLPRPRPRPYTDPRP | -0.161 |
| RRIRMRPPRLPRPRPRPYTFPRP | -0.0434 |
| RRIRMRPPRLPRPRPRPYTSPRP | -0.265 |

| Sequence | shrunken log2 fold change |
| --- | --- |
| RRIRMRPPRLPRPRPRPYVDPRP | -0.249 |
| RRIRMRPPRLPRPRPRPYVIPRP | -0.125 |
| RRIRMRPPRLPRPRPRPYWFPRP | -0.131 |
| RRIRMRPPRLPRPRPRPYWLPRP | -0.0329 |
| RRIRMRPPRLPRPRPRPYYVPRP | -0.0412 |
| RRIRNRPPRLPRPRPRPAEMPRP | -0.00992 |
| RRIRNRPPRLPRPRPRPAENPRP | -0.0634 |
| RRIRNRPPRLPRPRPRPAFIPRP | -0.579 |
| RRIRNRPPRLPRPRPRPAGSPRP | 0.086 |
| RRIRNRPPRLPRPRPRPAHCPRP | -0.424 |
| RRIRNRPPRLPRPRPRPALSPRP | 0.0962 |
| RRIRNRPPRLPRPRPRPAMAPRP | 0.0129 |
| RRIRNRPPRLPRPRPRPANYPRP | -0.0161 |
| RRIRNRPPRLPRPRPRPAQEPRP | 0.0303 |
| RRIRNRPPRLPRPRPRPAQHPRP | 0.00182 |
| RRIRNRPPRLPRPRPRPAQTPRP | -0.0137 |
| RRIRNRPPRLPRPRPRPARFPRP | 0.0266 |
| RRIRNRPPRLPRPRPRPARWPRP | 0.531 |
| RRIRNRPPRLPRPRPRPASLPRP | 0.0991 |
| RRIRNRPPRLPRPRPRPASWPRP | 0.369 |
| RRIRNRPPRLPRPRPRPATTPRP | 0.272 |
| RRIRNRPPRLPRPRPRPAVAPRP | 0.339 |
| RRIRNRPPRLPRPRPRPAWMPRP | 0.056 |
| RRIRNRPPRLPRPRPRPAWSPRP | 0.0515 |
| RRIRNRPPRLPRPRPRPAYRPRP | 0.105 |

| Sequence | shrunken log2 fold change |
| --- | --- |
| RRIRNRPPRLPRPRPRPAYSPRP | -0.189 |
| RRIRNRPPRLPRPRPRPCAKPRP | -0.0333 |
| RRIRNRPPRLPRPRPRPCASPRP | -0.106 |
| RRIRNRPPRLPRPRPRPCAYPRP | -0.139 |
| RRIRNRPPRLPRPRPRPCCHPRP | -0.00931 |
| RRIRNRPPRLPRPRPRPCCNPRP | -0.432 |
| RRIRNRPPRLPRPRPRPCDPPRP | -0.114 |
| RRIRNRPPRLPRPRPRPCFAPRP | 0.0964 |
| RRIRNRPPRLPRPRPRPCFTPRP | -0.733 |
| RRIRNRPPRLPRPRPRPCGEPRP | 0.0369 |
| RRIRNRPPRLPRPRPRPCGRPRP | -0.0266 |
| RRIRNRPPRLPRPRPRPCGTPRP | -0.139 |
| RRIRNRPPRLPRPRPRPCGYPRP | 0.019 |
| RRIRNRPPRLPRPRPRPCHNPRP | -0.818 |
| RRIRNRPPRLPRPRPRPCIAPRP | -0.878 |
| RRIRNRPPRLPRPRPRPCLDPRP | -0.0122 |
| RRIRNRPPRLPRPRPRPCPEPRP | 0.113 |
| RRIRNRPPRLPRPRPRPCPRPRP | -0.0673 |
| RRIRNRPPRLPRPRPRPCPSPRP | -0.0371 |
| RRIRNRPPRLPRPRPRPCRAPRP | -0.0439 |
| RRIRNRPPRLPRPRPRPCRHPRP | -0.149 |
| RRIRNRPPRLPRPRPRPCVMPRP | 0.0192 |
| RRIRNRPPRLPRPRPRPCVNPRP | -0.282 |
| RRIRNRPPRLPRPRPRPCVTPRP | -0.0849 |
| RRIRNRPPRLPRPRPRPCWHPRP | -0.0656 |
